Assay [1] concerns the target T1, human TMEM106B (human, UniProt Q9NUM4 2-274).
T1 construct: full-length, transiently expressed on HEK293 cells, or natively expressed on HeLa, U251 and A549 cells (the cell is named under assay); also the source of the Pepscan peptides; also called huTMEM106B; huTMEM
Description: FACS A549.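 Further: flow cytometry of cells incubated on ice for 1 h with hybridoma supernatant or purified antibody at 10 µg/mL, dead propidium iodide-positive cells gated out.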
Description: (§1) All cells were cultured in either T75 or T150 flasks. […] The enzyme was quenched by addition of fresh media, and the cells were then distributed into 96-well plates for FACS analysis.
(§2) FACS analysis was performed as follows. Each cell type was aliquoted in 96-well round bottom plates (2×10^5 cells per well), washed once with FACS buffer (PBS+2% FBS+1 mM EDTA), and incubated with 50 μL of hybridoma supernatant or purified antibody (10 μg/ml in FACS buffer) on ice for 1 hour. […] Following this secondary incubation, the cells were again washed 2× with ice-cold FACS buffer and resuspended in a final volume of 50 μL of FACS buffer+0.25 μl/well propidium iodide (Fisher Scientific #4BDB556463). Analysis was performed on a FACSCanto system (BD Biosciences) or iQue (Intellicyt), with sort gates drawn to exclude dead (i.e., propidium iodide positive) cells.

Assay [2] has as its target T1, human TMEM106B. Nature of the assay: FACS HEK+huTMEM 10 ug/ml.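 Further: flow cytometric binding of purified mouse IgG antibodies to HEK293 cells transiently expressing human TMEM106B, read as median fluorescence intensity on live cells with propidium iodide-positive cells excluded.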
Description: (§3) Purified anti-TMEM106B antibodies were evaluated for their binding affinity to various TMEM106B-expressing cell lines including HEK293 transiently transfected with human/cyno/mouse TMEM106B, as well as HeLa cells and A549 cells. Antibodies tested for this experiment were mouse IgGs purified from hybridoma supernatant. Affinity binding to cells was determined as follows. Briefly, 1×10\hat{ }5 cells were aliquoted per well in 96-well round bottom plates and incubated with 50 μL of purified anti-TMEM106B antibody at various concentrations (10× dilutions starting at 10 μg/ml) in FACS buffer (PBS+2% FBS+1 mM EDTA). […] Sorting was performed on a iQue (Intellicyt), with sort gates drawn to exclude dead (propidium iodide+) cells. Binding data was analyzed using median fluorescent intensity (MFI) and graphed in Prism. Values presented are MFI.
Assay [3] has as its target T1, human TMEM106B. Description: FACS HEK+huTMEM 0.1 ug/ml (2nd column so headed).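 Further: flow cytometry binding of purified anti-TMEM106B mouse IgG to HEK293 cells transiently transfected with TMEM106B, read as median fluorescence intensity on live (propidium iodide-negative) cells.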
Description: as §3
Assay [4] deals with T1, human TMEM106B. Nature of the assay: FACS HEK+huTMEM 0.1 ug/ml.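 Further: flow cytometry binding of purified mouse IgG antibodies to HEK293 cells transiently expressing TMEM106B, read as median fluorescence intensity on live cells (propidium iodide negative gating).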
Description: as §3
The target of another assay is T2, mouse TMEM106B (mouse, UniProt Q80X71 2-275).
T2 construct: transiently expressed on HEK293 cells, or native on mouse Neuro2a cells; also called moTMEM106B; murine TMEM106B
Description: FACS Neuro2a.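 Further: flow cytometry of antibody binding to cells: hybridoma supernatant or purified antibody at 10 µg/ml, 1 h on ice, secondary detection, propidium iodide–positive dead cells gated out.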

Assay [5] concerns the target T1, human TMEM106B. Nature of the assay: FACS A549 1 ug/ml.
Description: as §3
The target of assay [6] is T1, human TMEM106B. Nature of the assay: FACS U251.
Description: as §1, §2
The target in assay [7] is T1, human TMEM106B. Nature of the assay: FACS HeLa.
Description: as §1, §2
The target of assay [8] is T1, human TMEM106B. Description: FACS A549 10 ug/ml.
Assay [9] has as its target T1, human TMEM106B. Nature of the assay: FACS HEK+huTMEM 1.0 ug/ml.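 Further: binding of purified mouse IgG antibodies to HEK293 cells transiently expressing human TMEM106B, read by flow cytometry as median fluorescence intensity of live, propidium iodide-negative cells.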
Description: as §3

Description for mouse TMEM106B: as §1, §2

B1: TM-18 (antibody, V domains shown)
VH: EVRLQQSGPELVKPGASVKISCKTSGYTFTDYYMNWVKQSHGKSLEWIVNINPNNGDAFYNQKFKGKATLTVDKSSNTAYLDLRSLTSEDSAVYYCAREGQLRLRRVYAMDYWGQGTSVTVSS
VL: DIVLAQSPASLAVSLGQRATISCRASKSVSISVYTYVHWYQQKPGQPPKLLIYLASNLESGVPARFSGSGSGTDFTLNIHPVEEEDAATYYCQHSRELPYTFGGGTKLEIK
For the molecule B1, the MFI stood at 1490 MFI with human TMEM106B [1]; 71700 MFI with human TMEM106B [2]; 1740 MFI in the assay with human TMEM106B [3]; 10600 MFI with human TMEM106B [4]; 1930 MFI in the assay with mouse TMEM106B; 2620 MFI in the assay with human TMEM106B [5]. Further, the MFI in the assay with human TMEM106B [6] was 874 MFI; in the assay with human TMEM106B [7], 1920 MFI; with human TMEM106B [8] it was 5190 MFI; in the assay with human TMEM106B [9], 67300 MFI.

B2: TM-13 (antibody, V domains shown)
VH: QVQLQQSGAELVKPGASVKMSCKASGYTFTTFPIEWMKQSHGKGLEWIGNFHPYNDDTKYNEKFKGKATLTVDKSSSTVYLDLSRLTSDDSAVYYCARYFYGGMDYWGQGTSVTVSS
VL: DIQMTQSPASLSVSVGETVTITCRASENIYSSLGWYQQKQGESPQLLVFAATNLADGVPSRFSGSGSGTQYSLKINSLQSEDFGTYYCQHLWSIPWTFGGGTRLEIK
As to B2, the MFI with human TMEM106B [1] was determined as 1260 MFI; in the assay with human TMEM106B [2], 67500 MFI; with human TMEM106B [3] it was 2900 MFI; in the assay with human TMEM106B [4] it was 19100 MFI; in the assay with mouse TMEM106B, 927 MFI; with human TMEM106B [5], 1950 MFI. The MFI with human TMEM106B [6] turned out to be 787 MFI; with human TMEM106B [7], 1380 MFI; with human TMEM106B [8], 3890 MFI; with human TMEM106B [9] it was 67100 MFI.

B3: TM-10 (antibody, V domains shown)
VH: QVQLQQSGAELVKPGASVKISCKGSGYAFSSYWMNWVKQRPGKGLEWIGQIYPGDGDTNYNGKFKGKATLTADKSSTTAYIHLSSLTSEDSAVYFCARWGHYDEAMDDWGQGTSVTVSS
VL: DVVMTQTPLSLPVSLGDQASISCRSSQSLVHSNGKTYLHWYVQKPGQSPKLLIYKISNRFSGVPDRFSGSGSGTDFTLKISRVEAEDLGVYFCSQITHVPWTFGGGTKLESK
Turning to B3, the MFI with human TMEM106B [1] stood at 823 MFI; in the assay with human TMEM106B [2], 36500 MFI; with human TMEM106B [3], 3360 MFI; in the assay with human TMEM106B [4], 21000 MFI; with mouse TMEM106B, 604 MFI; with human TMEM106B [5] it was 663 MFI. For the same molecule, the MFI in the assay with human TMEM106B [6] worked out at 328 MFI; in the assay with human TMEM106B [7], 596 MFI; with human TMEM106B [8] it was 1090 MFI; with human TMEM106B [9] it was 44400 MFI.

B4: TM-11 (antibody, V domains shown)
VH: QVQLKQSGPGQVQPSQSLSITCTVSGFSLSDYGVHWVRQSPGKGLEWLGVIWNNGNTDYNAAFISRLSINKDNSKSQVFFKMTSLQADDTAIYYCVRSLRPLHFDYWGQGTTVTVSS
VL: DIVMTQSPSSLTMSVGQKVTMHCKSSQSLLNSNNLQNYLAWYQQKPGQSPTLLVYFASIRESGVPDRFIGSGSGTDFTLTISSVQAEDLADYFCQQHYNTPFTFGSGTKLEIR
In the case of B4, the MFI came to 1340 MFI with human TMEM106B [1]; 57900 MFI in the assay with human TMEM106B [2]; 4280 MFI in the assay with human TMEM106B [3]; 16200 MFI with human TMEM106B [4]; 1040 MFI with mouse TMEM106B; 2870 MFI in the assay with human TMEM106B [5]. Also, the MFI amounted to 866 MFI in the assay with human TMEM106B [6], 1870 MFI with human TMEM106B [7], 5580 MFI in the assay with human TMEM106B [8] and 54600 MFI with human TMEM106B [9].

B5: TM-15 (antibody, V domains shown)
VH: QVQLQQPGAEFVRPGASVKLSCKASGYTFTNYWITWVKQRPGHGLEWIGDIYPGSGNSNYNESFKRKATLTVDTSSSTAYMHLSSQTSEDSAVYFCARKAYGGFPYWGQGTLVTVSA
VL: DIQMTQSPASLSVSVGETVTITCRVSENIYNNLAWYQQKQEKSPQLLVFAATNLADGVPSRFSGSGSGTQFSLKINSLQSEDFGTYYCQHFWDTPFTFGSGTKLEIK
notes: mouse IgG (hybridoma)
Regarding B5, the MFI in the assay with human TMEM106B [1] amounted to 938 MFI; with human TMEM106B [2], 63100 MFI; in the assay with human TMEM106B [3], 584 MFI; in the assay with human TMEM106B [4], 2060 MFI; with mouse TMEM106B, 470 MFI; in the assay with human TMEM106B [5] it was 650 MFI. For the same molecule, the MFI with human TMEM106B [6] is 382 MFI; with human TMEM106B [7] it was 660 MFI; with human TMEM106B [8], 1980 MFI; with human TMEM106B [9], 14300 MFI.

B6: TM-12 (antibody, V domains shown)
VH: EVQLQQSGAELMRPGASVKLSCTASGFNIQDYYMYWVKQRPEQGLEWIGRIDPEDGDAEYAPKFQGKATMTADTSSNTAYLQLSSLTSEDTAVYYCSTRVIYDGYYRTMDCWGQGTSVTVSS
VL: DVLMTQIPLSLPVSLGDQASISCRSSQTIVHSNGNTYLEWYLKKPGQSPKLLIDKISNRFSGVPDRFSGSGSGTDFTLKISRVEAEDLGVYYCFQGSHVPYTFGGGTKLEIK
For the molecule B6, the MFI with human TMEM106B [1] came out at 1940 MFI; with human TMEM106B [2], 75300 MFI; with human TMEM106B [3] it was 3340 MFI; with human TMEM106B [4], 19700 MFI; with mouse TMEM106B, 3040 MFI; with human TMEM106B [5], 3150 MFI. In addition, the MFI with human TMEM106B [6] was 1330 MFI; in the assay with human TMEM106B [7] it was 2660 MFI; with human TMEM106B [8] it was 4950 MFI; in the assay with human TMEM106B [9], 77800 MFI.

B7: TM-19 (antibody, V domains shown)
VH: DVQLQQSGAELVRPGASVKLSCTASGFNIKDYYMYWVKQRPEQGLEWIGRIDPEDGDTENAPKFRGMATMTADTSSNTAYLQLNSLTSEDTAVYYCTTRIGNLYHVMDYWGHGTSVTVSS
VL: DVLMTQTPLSLPVSLGDQASISCRSSQSIVHSNGNTYLEWYLQKPGQAPKLLIDKVFNRFSGVPDRFSGSGSGTDFTLKISRVEAEDLGVYYCFQGSHVPFTFGSGTKLEIK
For the molecule B7, the MFI came out at 1820 MFI in the assay with human TMEM106B [1]; 79000 MFI in the assay with human TMEM106B [2]; 3340 MFI with human TMEM106B [3]; 29800 MFI with human TMEM106B [4]; 2140 MFI with mouse TMEM106B; 3640 MFI in the assay with human TMEM106B [5]. Further, the MFI with human TMEM106B [6] was determined as 878 MFI; in the assay with human TMEM106B [7], 2430 MFI; in the assay with human TMEM106B [8], 4960 MFI; with human TMEM106B [9] it was 66800 MFI.

B8: TM-14 (antibody, V domains shown)
VH: QVQLQQSGPELVRPGTSVKVSCKASGYAFTNYLIEWVKQRPGQGLEWIGVINPGGGNTDYSEKFKDKATLTADKSSNTAYIQLSSLTSEDSAVYFCARSPYSSYVGYAVDYWGQGTSVTVSS
VL: DIQMTQSPSSLSASLGERVSLTCRASQDIGSNLNWLQQEPDGTIKRLIYATSSLDSGVPKRFSGSRSGSDYSLTISSLESEDFVVYYCLQYASSPRTFGGGTRLEIK
notes: mouse IgG (hybridoma)
As for B8, the MFI stood at 896 MFI with human TMEM106B [1]; 1190 MFI with human TMEM106B [2]; 314 MFI with human TMEM106B [3]; 364 MFI with human TMEM106B [4]; 300 MFI in the assay with mouse TMEM106B; 409 MFI in the assay with human TMEM106B [5]. For the same molecule, the MFI with human TMEM106B [6] turned out to be 270 MFI; in the assay with human TMEM106B [7] it was 307 MFI; with human TMEM106B [8] it was 438 MFI; in the assay with human TMEM106B [9] it was 680 MFI.

B9: TM-17 (antibody, V domains shown)
VH: QVQLQQSGAELIRPGTSVKVSCKASGYAFTDYLIEWVKQRPGQGLEWIGVINPGSGGTNYNEKFKGKAKLTADKSSSTAYMQLSSLTSEDSAVYFCVRSSYGVYVAYPMDYWGQGTSVTVSS
VL: DIQMTQSPSSLSASLGERVSLTCRASQDIGSNLNWLQQEPDGTIKRLIYATSSLDSGVPKRFSGSRSGSDYSLTISSLESEDFVDYYCLQYASSPRTFGGGTKLEIK
B9: the MFI was found to be 953 MFI with human TMEM106B [1]; 3960 MFI with human TMEM106B [2]; 1150 MFI with human TMEM106B [3]; 1910 MFI in the assay with human TMEM106B [4]; 385 MFI with mouse TMEM106B; 379 MFI in the assay with human TMEM106B [5]. Further, the MFI in the assay with human TMEM106B [6] is 305 MFI; with human TMEM106B [7], 437 MFI; with human TMEM106B [8], 425 MFI; in the assay with human TMEM106B [9], 2620 MFI.

B10: TM-9 (antibody, V domains shown)
VH: EVQLVESGGDLVKPGGSLKLSCVASGFTFSGYGMSWVRQTPDKRLEWVATISSGSFYIYYPDSVKGRLTVSRDNAKNTLYLQMSSLKSEDTAIYYCARQNFYYGCEDYWGQGTTLTVSS
VL: DIVMTQAAFSNPVTLGTSASISCRSSKSLLHSNGITYLYWYLQKPGQSPQLLIYQMSNLASGVPNRFSSSGSGTDFTLRISRVEAEDVGVYYCAQNLELPWTFGGGTKLEIK
As for B10, the MFI turned out to be 1990 MFI with human TMEM106B [1]; 56400 MFI with human TMEM106B [2]; 3940 MFI with human TMEM106B [3]; 28300 MFI with human TMEM106B [4]; 2710 MFI with mouse TMEM106B; 4880 MFI in the assay with human TMEM106B [5]. Besides, the MFI was 1540 MFI with human TMEM106B [6], 2540 MFI with human TMEM106B [7], 7090 MFI in the assay with human TMEM106B [8] and 62100 MFI with human TMEM106B [9].

B11: TM-21 (antibody, V domains shown)
VH: EVQLVESGGGLVKPGGSLKLSCAASGFTFSNYAMSWVRETPEKRLEWVAFISDGGGYIYYADNVKDRFTISRDNAKNNLYLQMRHLKSEDTAMYYCARDGGTGFTYWGQGTLVTVSV
VL: DIVMTQAAFSNPVTLGTSASISCRSSKSLLHSNGITYLFWYLQKPGQSPQLLIYQMSNLASGVPDRFSSSGSGTDFTLRISRVEAEDVGVYYCVQNLELPYTFGGGTKLEIK
Regarding B11, the MFI came to 1030 MFI in the assay with human TMEM106B [1]; 69400 MFI with human TMEM106B [2]; 2350 MFI in the assay with human TMEM106B [3]; 15600 MFI with human TMEM106B [4]; 706 MFI with mouse TMEM106B; 2030 MFI in the assay with human TMEM106B [5]. Further, the MFI with human TMEM106B [6] worked out at 672 MFI; with human TMEM106B [7], 1200 MFI; with human TMEM106B [8] it was 4230 MFI; in the assay with human TMEM106B [9] it was 69400 MFI.

These data come from patent US20200339680A1 (Alector, published 2020).
